The results in this text go back to the supplement of paper PMC11246515.

The nature of the data set: total protein half-life in vivo (active degradation + dilution); higher = more stable protein.
The mark [1] stands for this setting: E. coli NCM3722 delta-clpP delta-lon delta-hslV, growth: N-lim chemostat, doubling time 6 h.
Setting [2] is: E. coli NCM3722 delta-clpP, growth: N-lim chemostat, doubling time 6 h.
[3] abbreviates: E. coli NCM3722 delta-hslV, growth: N-lim chemostat, doubling time 6 h.
Where [4] appears, read: E. coli NCM3722 delta-lon, growth: N-lim chemostat, doubling time 6 h.
The mark [5] stands for this setting: E. coli NCM3722 delta-smpB, growth: N-lim chemostat, doubling time 6 h.
[6] abbreviates: wild type E. coli NCM3722, growth: C-lim chemostat, doubling time 3 h.
The mark [7] stands for this setting: wild type E. coli NCM3722, growth: C-lim chemostat, doubling time 6 h.
The mark [8] stands for this setting: wild type E. coli NCM3722, growth: C-lim chemostat, doubling time 12 h.
Setting [9] is: wild type E. coli NCM3722, growth: N-lim chemostat, doubling time 12 h.
Where [10] appears, read: wild type E. coli NCM3722, growth: P-lim chemostat, doubling time 6 h.
Where [11] appears, read: wild type E. coli NCM3722, growth: P-lim chemostat, doubling time 12 h.
Setting [12] is: wild type E. coli NCM3722, growth: N-lim chemostat, doubling time 6 h.

± gives the standard deviation of the averaged measurements.

For the substance “MPRFAANLSMMFTEVPFIERFAAARKAGFDAVEFLFPYNYSTLQIQKQLEQNHLTLALFNTAPGDINAGEWGLSALPGREHEAHADIDLALEYALALNCEQVHVMAGVVPAGEDAERYRAVFIDNIRYAADRFAPHGKRILVEALSPGVKPHYLFSSQYQALAIVEEVARDNVFIQLDTFHAQKVDGNLTHLIRDYAGKYAHVQIAGLPDRHEPDDGEINYPWLFRLFDEVGYQGWIGCEYKPRGLTEEGLGWFDAWR”, the “total protein half-life in vivo” value runs as follows: under setting [1], 3.98 h; under setting [2], 2.21 h; under setting [3], 2.23 h; under setting [4], 2.48 ± 0.15 h; under setting [5], 2.41 ± 0.048 h; under setting [6], 2.829 ± 0.0073 h. The “total protein half-life in vivo” value by setting is: under setting [7], 3.68 ± 0.23 h; under setting [8], 6.54 ± 0.17 h; under setting [9], 3.45 h; under setting [10], 4.28 h; under setting [11], 8.69 ± 0.052 h.

For the substance “MQRGIVWVVDDDSSIRWVLERALAGAGLTCTTFENGAEVLEALASKTPDVLLSDIRMPGMDGLALLKQIKQRHPMLPVIIMTAHSDLDAAVSAYQQGAFDYLPKPFDIDEAVALVERAISHYQEQQQPRNVQLNGPTTDIIGEAPAMQDVFRIIGRLSRSSISVLINGESGTGKELVAHALHRHSPRAKAPFIALNMAAIPKDLIESELFGHEKGAFTGANTIRQGRFEQADGGTLFLDEIGDMPLDVQTRLLRVLADGQFYRVGGYAPVKVDVRIIAATHQNLEQRVQEGKFREDLFHRLNVIRVHLPPLRERREDIPRLARHFLQVAARELGVEAKLLHPETEAALTRLAWPGNVRQLENTCRWLTVMAAGQEVLIQDLPGELFESTVAESTSQMQPDSWATLLAQWADRALRSGHQNLLSEAQPELERTLLTTALRHTQGHKQEAARLLGWGRNTLTRKLKELGME [P0AFB8]”, the “total protein half-life in vivo” value by setting is: under setting [1], 5.64 ± 0.8 h; under setting [2], 5.18 ± 0.39 h; under setting [3], 4.86 ± 0.35 h; under setting [4], 5.263 ± 0.02 h; under setting [5], 4.32 ± 0.052 h; under setting [6], 2.678 ± 0.0012 h. Also, the “total protein half-life in vivo” value worked out at 4.85 ± 0.1 h under setting [7]; 8.034 ± 0.033 h under setting [8]; 4.72 ± 0.12 h under setting [12]; 7.57 ± 0.25 h under setting [9]; 4.22 ± 0.085 h under setting [10]; 7.58 ± 0.097 h under setting [11].

For “MSQALKNLLTLLNLEKIEEGLFRGQSEDLGLRQVFGGQVVGQALYAAKETVPEERLVHSFHSYFLRPGDSKKPIIYDVETLRDGNSFSARRVAAIQNGKPIFYMTASFQAPEAGFEHQKTMPSAPAPDGLPSETQIAQSLAHLLPPVLKDKFICDRPLEVRPVEFHNPLKGHVAEPHRQVWIRANGSVPDDLRVHQYLLGYASDLNFLPVALQPHGIGFLEPGIQIATIDHSMWFHRPFNLNEWLLYSVESTSASSARGFVRGEFYTQDGVLVASTVQEGVMRNHN [P0AGG2]”, the “total protein half-life in vivo” value under setting [1] came out at 5.35 ± 0.059 h; the “total protein half-life in vivo” value under setting [2] came out at 5.17 ± 0.18 h; the “total protein half-life in vivo” value under setting [3] stood at 4.986 ± 0.04 h; the “total protein half-life in vivo” value under setting [4] was 5.37 ± 0.47 h; the “total protein half-life in vivo” value under setting [5] was 5.17 ± 0.67 h; the “total protein half-life in vivo” value under setting [7] came to 6.42 ± 0.37 h. The “total protein half-life in vivo” value runs as follows: under setting [8], 10.69 ± 0.082 h; under setting [12], 5.04 ± 0.13 h; under setting [9], 8.59 ± 0.29 h; under setting [10], 5.922 ± 0.027 h; under setting [11], 13.018 ± 0.0091 h.

With “MELKKLMGHISIIPDYRQAWKMEHKLSDILLLTICAVISGAEGWEDIEDFGETHPDFLKQYGDFENGIPVHDTIARVVSCISPAKFHECFINWMRDCHSSDDKDVIAIDGKTLRHSYDKSRRRGAIHVISAFSTMHSLVIGQIKTDEKSNEITAIPELLNMLDIKGKIITTDAMGCQKDIAEKIQKQGGDYLFAVKGNQGRLNKAFEEKFPLKELNNPAHDSYAMSEKSHGREEIRLHIVCDVPDELIDFTFEWKGLKKLCVAVSFRSIIAEQKKELEMTVRYYISSADLTAEKFATAIRNHWHVENKLHWRLDVVMNEDDCKIRRGNAAELFSGIRHIAINILTNDKVFKAGLRRKMRKAAMDRNYLASVLTGSGLS”, the “total protein half-life in vivo” value under setting [1] worked out at 6.51 h and the “total protein half-life in vivo” value under setting [11] was 11.9 h.

Turning to P0AAI3, the “total protein half-life in vivo” value came out at 4.9 ± 0.24 h under setting [1]; 5.097 ± 0.043 h under setting [2]; 4.76 ± 0.23 h under setting [3]; 4.88 ± 0.19 h under setting [4]; 4.46 ± 0.14 h under setting [5]; 3.11 ± 0.11 h under setting [6]. Also, the “total protein half-life in vivo” value under setting [7] turned out to be 5.51 ± 0.52 h; the “total protein half-life in vivo” value under setting [8] came out at 10.8 ± 0.55 h; the “total protein half-life in vivo” value under setting [12] was 4.53 ± 0.27 h; the “total protein half-life in vivo” value under setting [9] turned out to be 8.44 ± 0.27 h; the “total protein half-life in vivo” value under setting [10] was found to be 6.15 ± 0.37 h; the “total protein half-life in vivo” value under setting [11] was found to be 10.2 ± 0.18 h.

Turning to “MMDLDNIPDTQTEAEELEEVVMGLIINSGQARSLAYAALKQAKQGDFAAAKAMMDQSRMALNEAHLVQTKLIEGDAGEGKMKVSLVLVHAQDHLMTSMLARELITELIELHEKLKA”, the “total protein half-life in vivo” value reads like this: under setting [1], 4.73 h; under setting [2], 2.85 ± 0.031 h; under setting [6], 1.44 h; under setting [7], 1.82 ± 0.14 h; under setting [8], 2.66 h.

With “MQKYISEARLLLALAIPVILAQIAQTAMGFVDTVMAGGYSATDMAAVAIGTSIWLPAILFGHGLLLALTPVIAQLNGSGRRERIAHQVRQGFWLAGFVSVLIMLVLWNAGYIIRSMENIDPALADKAVGYLRALLWGAPGYLFFQVARNQCEGLAKTKPGMVMGFIGLLVNIPVNYIFIYGHFGMPELGGVGCGVATAAVYWVMFLAMVSYIKRARSMRDIRNEKGTAKPDPAVMKRLIQLGLPIALALFFEVTLFAVVALLVSPLGIVDVAGHQIALNFSSLMFVLPMSLAAAVTIRVGYRLGQGSTLDAQTAARTGLMVGVCMATLTAIFTVSLREQIALLYNDNPEVVTLAAHLMLLAAVYQISDSIQVIGSGILRGYKDTRSIFYITFTAYWVLGLPSGYILALTDLVVEPMGPAGFWIGFIIGLTSAAIMMMLRMRFLQRLPSAIILQRASR”, the “total protein half-life in vivo” value under setting [1] came to 5.68 ± 0.19 h; the “total protein half-life in vivo” value under setting [2] worked out at 6.61 h; the “total protein half-life in vivo” value under setting [4] was 4.97 ± 0.54 h; the “total protein half-life in vivo” value under setting [5] was 5.45 ± 0.68 h; the “total protein half-life in vivo” value under setting [6] was found to be 3.6 h; the “total protein half-life in vivo” value under setting [8] is greater than 16 h. Further, the “total protein half-life in vivo” value worked out at 6.87 ± 0.42 h under setting [12], 12 ± 0.72 h under setting [9], 5.52 ± 0.6 h under setting [10] and 12.7 ± 0.75 h under setting [11].

In the case of “MIDKSAFVHPTAIVEEGASIGANAHIGPFCIVGPHVEIGEGTVLKSHVVVNGHTKIGRDNEIYQFASIGEVNQDLKYAGEPTRVEIGDRNRIRESVTIHRGTVQGGGLTKVGSDNLLMINAHIAHDCTVGNRCILANNATLAGHVSVDDFAIIGGMTAVHQFCIIGAHVMVGGCSGVAQDVPPYVIAQGNHATPFGVNIEGLKRRGFSREAITAIRNAYKLIYRSGKTLDEVKPEIAELAETYPEVKAFTDFFARSTRGLIR [P0A722]”, the “total protein half-life in vivo” value worked out at 5.73 ± 0.15 h under setting [1]; 5.26 ± 0.2 h under setting [2]; 5.49 ± 0.17 h under setting [3]; 5.48 ± 0.32 h under setting [4]; 5.59 ± 0.7 h under setting [5]; 3.06 ± 0.068 h under setting [6]. Moreover, the “total protein half-life in vivo” value amounted to 5.79 ± 0.17 h under setting [7]; 10.9 ± 0.052 h under setting [8]; 5.52 ± 0.27 h under setting [12]; 10.4 ± 0.94 h under setting [9]; 5.95 ± 0.41 h under setting [10]; 12.5 ± 0.48 h under setting [11].
